Reference: patent US20200263158

What was measured:
[1] = test system: blue casein (zymogram gel substrate)
[2] = target: T1, tau 4R2N peptide (amino acids 335-353)
T1 chain: GQVEVKSEKLDFKDRVQSK

[3] = target: T2, tau FRET peptide OP-002, MCA-GGQVEVKSE{Lys(DNP)}
T2 chain: GGQVEVKSE

Molecule: recombinant human tau 4R2N (full-length tau protein)
- zymogram, clearing of blue casein [1]: tau had the ability to cut the casein protein substrate in the zymogram
- autoproteolysis, N-terminal Edman sequencing of fragment F3: The N-terminal sequence of fragment F3 was determined to be SEKLDF corresponding to amino acids 341-346 of Tau 4R2N
- autoproteolysis, N-terminal Edman sequencing of fragments 1-4: The N-terminal sequence of the four fragments was the same: SKDGTG

B1: TP-99 (Tau 4R2N 241-340) (protein)
chain: MRLQTAPVPMPDLKNVKSKIGSTENLKHQPGGGKVQIINKKLDLSNVQSKCGSKDNIKHVPGGGSVQIVYKPVDLSKVTSKCGSLGNIHHKPGGGQVEVK
- cleavage of peptide substrate, reverse-phase HPLC [2]: intact peptide which is greatly diminished in the upper trace and replaced with two smaller peaks F1 and F2 that represent fragments generated by TP-99

B2: TP-210 (Tau 4R2N 131-340) (protein)
chain: MSKDGTGSDDKKAKGADGKTKIATPRGAAPPGQKGQANATRIPAKTPPAPKTPPSSGEPPKSGDRSGYSSPGSPGTPGSRSRTPSLPTPPTREPKKVAVVRTPPKSPSSAKSRLQTAPVPMPDLKNVKSKIGSTENLKHQPGGGKVQIINKKLDLSNVQSKCGSKDNIKHVPGGGSVQIVYKPVDLSKVTSKCGSLGNIHHKPGGGQVEVK
- cleavage of peptide substrate, reverse-phase HPLC [2]: intact peptide was greatly diminished in the upper trace and replaced with two smaller peaks F1 and F2 that represent fragments generated by TP-210

B3: Tau 4R2N 260-340 (TP-81) (protein)
chain: MIGSTENLKHQPGGGKVQIINKKLDLSNVQSKCGSKDNIKHVPGGGSVQIVYKPVDLSKVTSKCGSLGNIHHKPGGGQVEVK
- fluorescence of FRET peptide, plate reader [3]: Tau 4R2N 260-340 cuts tau FRET peptide
